This note sets out measurements from PMC7826273.

Read-outs that look alike come from different tables or passages of the source.

Data set [1] addresses T1, FmhB (Staphylococcus aureus, UniProt Q2FVZ4 1-421).
T1 sequence: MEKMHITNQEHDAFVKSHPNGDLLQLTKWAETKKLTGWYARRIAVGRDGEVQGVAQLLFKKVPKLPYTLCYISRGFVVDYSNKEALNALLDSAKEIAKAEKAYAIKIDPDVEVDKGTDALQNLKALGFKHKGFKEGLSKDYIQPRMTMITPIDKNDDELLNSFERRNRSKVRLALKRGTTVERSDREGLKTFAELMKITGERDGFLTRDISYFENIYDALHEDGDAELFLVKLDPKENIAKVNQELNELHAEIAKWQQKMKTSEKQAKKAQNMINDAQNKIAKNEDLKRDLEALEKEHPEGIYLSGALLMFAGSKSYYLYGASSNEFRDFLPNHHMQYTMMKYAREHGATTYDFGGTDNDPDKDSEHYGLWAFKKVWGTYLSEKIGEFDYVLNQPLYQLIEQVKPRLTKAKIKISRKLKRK
Briefly: competition.

Data set [2] addresses T1, FmhB. Briefly: competition. The source holds these as a separate data set.
For data set [3], the target named is T1, FmhB. Briefly: competition. The source holds these as a separate data set.
Data set [4] has as its target T1, FmhB. Briefly: competition. This is another data set of the same source.
Data set [5] deals with EF-Tu (GTP form) (UniProt P99152 1-394). Briefly: competition.
Chain of EF-Tu (GTP form) (P99152 whole entry): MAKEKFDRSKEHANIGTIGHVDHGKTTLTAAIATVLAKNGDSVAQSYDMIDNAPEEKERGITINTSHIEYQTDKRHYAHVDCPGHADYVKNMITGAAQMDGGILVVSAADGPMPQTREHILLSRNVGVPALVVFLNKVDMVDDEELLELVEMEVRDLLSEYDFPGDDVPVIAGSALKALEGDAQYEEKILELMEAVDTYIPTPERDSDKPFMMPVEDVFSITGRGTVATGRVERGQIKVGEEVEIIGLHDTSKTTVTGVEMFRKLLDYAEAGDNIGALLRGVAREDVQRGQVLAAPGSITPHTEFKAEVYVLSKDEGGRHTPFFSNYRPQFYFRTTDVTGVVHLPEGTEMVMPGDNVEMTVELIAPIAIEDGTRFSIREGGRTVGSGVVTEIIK
The target in data set [6] is T1, FmhB. Briefly: size-exclusion chromatography. In general terms: In gel filtration, larger molecules generally elute earlier.

B1: NP2 stable Gly-tRNA analogue, 2' isomer (structured_RNA)
RNA: GCGGGAGUAGUUCAACUUUUAGAACACGUUCCUUCCCGGAACGAGGUAUAGGUGUAAAUCCUAUCUUCCGCUCCA
modifications: 2'-(1,4-triazole-alkyne; nonadiyne) on terminal A; penultimate C is dC (pdCpA ligation)
Consider B1, for which the affinity in data set [1], expressed as Ki, was 8.6 ± 2 nM.

B2: NP2 stable Gly-tRNA analogue, 3' isomer (structured_RNA)
RNA: GCGGGAGUAGUUCAACUUUUAGAACACGUUCCUUCCCGGAACGAGGUAUAGGUGUAAAUCCUAUCUUCCGCUCCA
modifications: 3'-(1,4-triazole-alkyne; nonadiyne) on terminal A; penultimate C is dC (pdCpA ligation)
With B2, in data set [2], the Ki – broadly, a measure of affinity in units of concentration, obtained from inhibition or displacement – came to 110 ± 6 nM.

B3: CHIM1 analogue (NP2 with P1 acceptor stem) (structured_RNA)
RNA: GCAGAAGUAGUUCAACUUUUAGAACACGUUCCUUCCCGGAACGAGGUAUAGGUGCAAAUCCUAUCUUCUGCUCCA
modifications: 2'-triazole-nonadiyne on terminal A; penultimate C is dC
With B3, affinity in data set [3] was put at a Ki of 7.6 ± 0.7 nM.

B4: CHIM4 analogue (P1 with NP2 anticodon stem-loop) (structured_RNA)
RNA: GCAGAAGUAGUUCAGCGGUAGAAUACGUUCCUUCCCGGAACGGGGUCGCGGGUUCGAAUCCCGUCUUCUGCUCCA
modifications: 2'-triazole-nonadiyne on terminal A; penultimate C is dC
Regarding B4, the Ki in data set [3] is 220 ± 40 nM.

B5: CHIM3 analogue (NP2 with P1 anticodon stem-loop) (structured_RNA)
RNA: GCGGGAGUAGUUCAACUUUUAGAACACAACCUUGCCAAGGUUGAGGUAUAGGUGUAAAUCCUAUCUUCCGCUCCA
modifications: 2'-triazole-nonadiyne on terminal A; penultimate C is dC
For the molecule B5, the Ki in data set [3] turned out to be 5.4 ± 0.3 nM.

B6: CHIM5 analogue (NP2 with P1 anticodon stem-loop and acceptor stem) (structured_RNA)
RNA: GCAGAAGUAGUUCAACUUUUAGAACACAACCUUGCCAAGGUUGAGGUAUAGGUGUAAAUCCUAUCUUCUGCUCCA
modifications: 2'-triazole-nonadiyne on terminal A; penultimate C is dC
As to B6, affinity in data set [3] was put at a Ki of 19 ± 2 nM. Against the preceding molecule, the Ki is about 3.5-fold higher.

B7: P1_1 analogue (P1 with NP2 region 1) (structured_RNA)
RNA: GCAGAAGUAGUUCAACUUUUAGAAUACAACCUUGCCAAGGUUGGGGUGCGGGUUCGAAUCCCGUCUUCUGCUCCA
modifications: stable triazole-nonadiyne analogue (2' isomer presumed)
Regarding B7, the binding signal in data set [4] was 2 ± 0.3 fold reduction in Ki vs P1 analogue.

B8: Gly-tRNAGly P1 (structured_RNA)
RNA: GCAGAAGUAGUUCAGCGGUAGAAUACAACCUUGCCAAGGUUGGGGUCGCGGGUUCGAAUCCCGUCUUCUGCUCCA
modifications: 3'-glycyl ester
In the case of B8, the binding signal in data set [5] was 14 ± 3 % residual FmhB activity at 4 uM EF-Tu.

B9: CHIM2 analogue (P1 with NP2 acceptor stem) (structured_RNA)
RNA: GCGGGAGUAGUUCAGCGGUAGAAUACAACCUUGCCAAGGUUGGGGUCGCGGGUUCGAAUCCCGUCUUCCGCUCCA
modifications: 2'-triazole-nonadiyne on terminal A; penultimate C is dC
B9 yielded a Ki in data set [3] of 1000 ± 160 nM.

B10: tRNAGly P1 (GCC-1), unacylated (structured_RNA)
RNA: GCAGAAGUAGUUCAGCGGUAGAAUACAACCUUGCCAAGGUUGGGGUCGCGGGUUCGAAUCCCGUCUUCUGCUCCA
B10: the binding result in data set [6] is “no binding”.

B11: P1 stable Gly-tRNA analogue, 2' isomer (structured_RNA)
RNA: GCAGAAGUAGUUCAGCGGUAGAAUACAACCUUGCCAAGGUUGGGGUCGCGGGUUCGAAUCCCGUCUUCUGCUCCA
modifications: 2'-(1,4-triazole-alkyne; nonadiyne) on terminal A; penultimate C is dC (pdCpA ligation)
Regarding B11, the Ki in data set [2] stood at 320 ± 10 nM.
